Tested on: Escherichia coli TOP10
Experiment: shrunken log2 fold change of peptide-encoding DNA abundance (4.5 h post-induction vs induction); higher = less antimicrobial activity (less host growth inhibition)
Conditions: time post-induction: 4.5 h; library: site-saturation at positions 5, 18, 19, 20
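Further: peptides expressed intracellularly from a pBAD plasmid library in pooled LB shake-flask culture, induced with 0.3% L-arabinose, DNA abundance read by NGS, three biological replicates, DESeq2 with apeglm shrinkage.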

| Sequence | shrunken log2 fold change |
| --- | --- |
| RRIRIRPPRLPRPRPRPCFMPRP | -0.378 |
| RRIRIRPPRLPRPRPRPCFWPRP | -0.22 |
| RRIRIRPPRLPRPRPRPCGTPRP | -0.00435 |
| RRIRIRPPRLPRPRPRPCKIPRP | -0.293 |
| RRIRIRPPRLPRPRPRPCKPPRP | -0.19 |
| RRIRIRPPRLPRPRPRPCKVPRP | -0.513 |
| RRIRIRPPRLPRPRPRPCLGPRP | -0.157 |
| RRIRIRPPRLPRPRPRPCLIPRP | -0.337 |
| RRIRIRPPRLPRPRPRPCNEPRP | -0.0608 |
| RRIRIRPPRLPRPRPRPCPAPRP | -0.247 |
| RRIRIRPPRLPRPRPRPCPEPRP | -0.644 |
| RRIRIRPPRLPRPRPRPCPYPRP | -0.269 |
| RRIRIRPPRLPRPRPRPCQWPRP | 0.0525 |
| RRIRIRPPRLPRPRPRPCRFPRP | -0.0104 |
| RRIRIRPPRLPRPRPRPCSFPRP | -0.45 |
| RRIRIRPPRLPRPRPRPCTGPRP | -0.887 |
| RRIRIRPPRLPRPRPRPCWWPRP | 0.082 |
| RRIRIRPPRLPRPRPRPDAKPRP | 0.0898 |
| RRIRIRPPRLPRPRPRPDATPRP | 0.0122 |
| RRIRIRPPRLPRPRPRPDCQPRP | 0.000528 |
| RRIRIRPPRLPRPRPRPDEFPRP | 0.0764 |
| RRIRIRPPRLPRPRPRPDFHPRP | -0.649 |
| RRIRIRPPRLPRPRPRPDGMPRP | -0.06 |
| RRIRIRPPRLPRPRPRPDHIPRP | -0.0811 |
| RRIRIRPPRLPRPRPRPDHVPRP | -0.23 |

| Sequence | shrunken log2 fold change |
| --- | --- |
| RRIRIRPPRLPRPRPRPDKDPRP | -0.0993 |
| RRIRIRPPRLPRPRPRPDKFPRP | -0.565 |
| RRIRIRPPRLPRPRPRPDKMPRP | -0.473 |
| RRIRIRPPRLPRPRPRPDLKPRP | -0.194 |
| RRIRIRPPRLPRPRPRPDLMPRP | -0.396 |
| RRIRIRPPRLPRPRPRPDMQPRP | -0.0983 |
| RRIRIRPPRLPRPRPRPDNEPRP | -0.117 |
| RRIRIRPPRLPRPRPRPDPIPRP | -0.0427 |
| RRIRIRPPRLPRPRPRPDPMPRP | -0.205 |
| RRIRIRPPRLPRPRPRPDPRPRP | 0.132 |
| RRIRIRPPRLPRPRPRPDRIPRP | 0.0297 |
| RRIRIRPPRLPRPRPRPDRMPRP | -0.0164 |
| RRIRIRPPRLPRPRPRPDRPPRP | -0.0549 |
| RRIRIRPPRLPRPRPRPDTCPRP | 0.0578 |
| RRIRIRPPRLPRPRPRPDVIPRP | -0.00836 |
| RRIRIRPPRLPRPRPRPDVLPRP | -1 |
| RRIRIRPPRLPRPRPRPDVQPRP | -0.192 |
| RRIRIRPPRLPRPRPRPDWYPRP | -0.842 |
| RRIRIRPPRLPRPRPRPEAGPRP | -0.17 |
| RRIRIRPPRLPRPRPRPECHPRP | 0.0255 |
| RRIRIRPPRLPRPRPRPEEEPRP | -0.031 |
| RRIRIRPPRLPRPRPRPEEGPRP | -0.05 |
| RRIRIRPPRLPRPRPRPEFLPRP | -0.0199 |
| RRIRIRPPRLPRPRPRPEFNPRP | -0.0922 |
| RRIRIRPPRLPRPRPRPEFWPRP | -0.0113 |

| Sequence | shrunken log2 fold change |
| --- | --- |
| RRIRIRPPRLPRPRPRPEHCPRP | 0.0755 |
| RRIRIRPPRLPRPRPRPEHTPRP | -0.464 |
| RRIRIRPPRLPRPRPRPEMRPRP | -0.0182 |
| RRIRIRPPRLPRPRPRPENNPRP | -0.36 |
| RRIRIRPPRLPRPRPRPENQPRP | -0.473 |
| RRIRIRPPRLPRPRPRPENVPRP | 0.267 |
| RRIRIRPPRLPRPRPRPEPCPRP | -0.057 |
| RRIRIRPPRLPRPRPRPEQIPRP | -9e-05 |
| RRIRIRPPRLPRPRPRPEQKPRP | 2.45 |
| RRIRIRPPRLPRPRPRPESIPRP | -0.12 |
| RRIRIRPPRLPRPRPRPETDPRP | -0.0362 |
| RRIRIRPPRLPRPRPRPETIPRP | -0.115 |
| RRIRIRPPRLPRPRPRPEVEPRP | -0.0136 |
| RRIRIRPPRLPRPRPRPEYHPRP | -0.152 |
| RRIRIRPPRLPRPRPRPEYRPRP | -1.12 |
| RRIRIRPPRLPRPRPRPFDGPRP | -0.262 |
| RRIRIRPPRLPRPRPRPFDMPRP | -0.142 |
| RRIRIRPPRLPRPRPRPFEGPRP | -0.221 |
| RRIRIRPPRLPRPRPRPFELPRP | -0.138 |
| RRIRIRPPRLPRPRPRPFFKPRP | -0.629 |
| RRIRIRPPRLPRPRPRPFGGPRP | -0.103 |
| RRIRIRPPRLPRPRPRPFGPPRP | -0.189 |
| RRIRIRPPRLPRPRPRPFGYPRP | -0.478 |
| RRIRIRPPRLPRPRPRPFKYPRP | -0.0899 |
| RRIRIRPPRLPRPRPRPFLCPRP | -0.628 |

— the supplement of paper PMC9112550, “Optimization of the antimicrobial peptide Bac7 by deep mutational scanning” (BMC Biology, 2022)
